± gives the uncertainty stated by the source.

Drawing on the Human Domainome abundance scans (Beltran et al. 2025), this text covers abundance fitness for 59 variants.

B1: SWI/SNF complex subunit SMARCC2, residues 599 to 641; numbered along this chain, Q8TAQ2 (parent)
chain: REWTEQETLLLLEALEMYKDDWNKVSEHVGSRTQDECILHFLR

Variants of B1 are the subject of the series. Description: abundance fitness (aPCA) (normalised: wild type 0, dead -1); higher = more abundant; growth selection in yeast, the domain comes from the species named. Conditions: Homo sapiens.
As to REWTEQETTLLLEALEMYKDDWNKVSEHVGSRTQDECILHFLR, the abundance fitness was found to be 0.243 ± 0.059.

As for REWTEQETELLLEALEMYKDDWNKVSEHVGSRTQDECILHFLR, the abundance fitness was -0.016 ± 0.1.

For REWTEQETVLLLEALEMYKDDWNKVSEHVGSRTQDECILHFLR, the abundance fitness was -0.023 ± 0.085.

As for REWTEQETLLLLEALEMYKDDWNKVSEHVGSRTQYECILHFLR, the abundance fitness is -0.486 ± 0.16.

Regarding REWTEQETLLLLEALEMYKDDWNKVSEHVGSRTQSECILHFLR, the abundance fitness turned out to be 0.087 ± 0.072.

Take REWTEQETLLLLEALEMYKDDWNKVSEHVGSRTQVECILHFLR: the abundance fitness was -0.556 ± 0.13.

On to REWTEQETLLLLEALEMYKDDWNKVSEHVGSRTQIECILHFLR, for which the abundance fitness was -0.388 ± 0.17.

For REWTEQETLLLLEALEMYKDDWNKVSEHVGSRTQQECILHFLR, the abundance fitness was 0.378 ± 0.1.

On to REWTEQETLLLLEALEMYKDDWNKVSEHVGSRTQGECILHFLR, for which the abundance fitness is 0.046 ± 0.1.

In the case of REWTEQETLLLLEALEMYKDDWNKVSEHVGSRTQMECILHFLR, the abundance fitness was determined as 0.008 ± 0.21.

As for REWTENETLLLLEALEMYKDDWNKVSEHVGSRTQDECILHFLR, the abundance fitness amounted to 0.046 ± 0.18.

Regarding REWTEMETLLLLEALEMYKDDWNKVSEHVGSRTQDECILHFLR, the abundance fitness was 0.144 ± 0.073.

For REWTEAETLLLLEALEMYKDDWNKVSEHVGSRTQDECILHFLR, the abundance fitness was determined as 0.117 ± 0.074.

In the case of REWTEFETLLLLEALEMYKDDWNKVSEHVGSRTQDECILHFLR, the abundance fitness was -0.211 ± 0.13.

Take REWTIQETLLLLEALEMYKDDWNKVSEHVGSRTQDECILHFLR: the abundance fitness is -0.178 ± 0.12.

On to REWTMQETLLLLEALEMYKDDWNKVSEHVGSRTQDECILHFLR, for which the abundance fitness is -0.026 ± 0.16.

As to REWTRQETLLLLEALEMYKDDWNKVSEHVGSRTQDECILHFLR, the abundance fitness was -0.339 ± 0.091.

As to REWTYQETLLLLEALEMYKDDWNKVSEHVGSRTQDECILHFLR, the abundance fitness stood at 0.116 ± 0.12.

On to REWTEQETLLLLEALEMYKDDWNKVSEHVGSATQDECILHFLR, for which the abundance fitness was -0.456 ± 0.093.

Turning to REWTEQETLLLLEALEMYKDDWNKVSEHRGSRTQDECILHFLR, the abundance fitness was -1.09 ± 0.17.

On to REWTEQETLLLLEALEMYKDDWNKVSEHHGSRTQDECILHFLR, for which the abundance fitness is -0.931 ± 0.23.

Turning to REWTEQETLLLLEALEMYKDDWNKVSEHWGSRTQDECILHFLR, the abundance fitness is -0.931 ± 0.21.

For REWTEQETLLLLEALEMYKDDWNKVSEHVGSRTRDECILHFLR, the abundance fitness turned out to be 0.014 ± 0.068.

Regarding REWTEQETLLLLEALEMYKDDWNNVSEHVGSRTQDECILHFLR, the abundance fitness was -0.501 ± 0.21.

For REWTEQETLLLLEALEMYKDDWNDVSEHVGSRTQDECILHFLR, the abundance fitness is -0.366 ± 0.12.

For the variant REWTEQETLLLLEALEMYKDDWNPVSEHVGSRTQDECILHFLR, the abundance fitness is -0.524 ± 0.092.

Consider REWTEQETLLLLEALEMYKDDWNAVSEHVGSRTQDECILHFLR, for which the abundance fitness stood at 0.124 ± 0.066.

As for REWTEQETLLLLEALEMYKDDWNKVSEHVGSRTQDECIWHFLR, the abundance fitness is -0.29 ± 0.34.

For the variant REWTEQETLLLLEALEMYKDDWNKVSEHVGSRTQDECIYHFLR, the abundance fitness was -0.108 ± 0.23.

For REWTEQETLLLLEALEMYKDDWNKVSEHVGSRTQDECIQHFLR, the abundance fitness came to 0.08 ± 0.28.

On to REWTEQETLLLLEALEMYKDDWNKVSEHVGSRTQDECIFHFLR, for which the abundance fitness was -0.024 ± 0.18.

For REPTEQETLLLLEALEMYKDDWNKVSEHVGSRTQDECILHFLR, the abundance fitness is -0.045 ± 0.26.

With REMTEQETLLLLEALEMYKDDWNKVSEHVGSRTQDECILHFLR, the abundance fitness was -0.181 ± 0.14.

For the variant RESTEQETLLLLEALEMYKDDWNKVSEHVGSRTQDECILHFLR, the abundance fitness is -0.317 ± 0.1.

Take REWTEQETLLLLTALEMYKDDWNKVSEHVGSRTQDECILHFLR: the abundance fitness is -0.181 ± 0.079.

As for REWTEQETLLCLEALEMYKDDWNKVSEHVGSRTQDECILHFLR, the abundance fitness is -0.17 ± 0.1.

Turning to REWTEQETLLTLEALEMYKDDWNKVSEHVGSRTQDECILHFLR, the abundance fitness is -0.412 ± 0.091.

As to REWTEQETLLDLEALEMYKDDWNKVSEHVGSRTQDECILHFLR, the abundance fitness is -0.801 ± 0.16.

For REWTEQETLLELEALEMYKDDWNKVSEHVGSRTQDECILHFLR, the abundance fitness was -0.628 ± 0.13.

For REWTEQTTLLLLEALEMYKDDWNKVSEHVGSRTQDECILHFLR, the abundance fitness was -0.745 ± 0.2.

On to REWTEQKTLLLLEALEMYKDDWNKVSEHVGSRTQDECILHFLR, for which the abundance fitness is -0.921 ± 0.19.

Turning to REWTEQWTLLLLEALEMYKDDWNKVSEHVGSRTQDECILHFLR, the abundance fitness is -1.27 ± 0.45.

For REWTEQETLLLLEALEMYKDDWQKVSEHVGSRTQDECILHFLR, the abundance fitness was -0.081 ± 0.097.

For the variant REWTEQETLLLLEALEMYKDDWPKVSEHVGSRTQDECILHFLR, the abundance fitness came to 0.17 ± 0.059.

Regarding REWTEQETLLLLEALEMYKDDWIKVSEHVGSRTQDECILHFLR, the abundance fitness is -0.121 ± 0.14.

On to REWTEQETLLLLEALEMYKDDWEKVSEHVGSRTQDECILHFLR, for which the abundance fitness is 0.091 ± 0.17.

On to REWTEQETLLLLEALEMYKDDWNKVKEHVGSRTQDECILHFLR, for which the abundance fitness amounted to 0.211 ± 0.089.

REWTEQETLLLLEALEMYKDDWNKVNEHVGSRTQDECILHFLR: the abundance fitness was -0.62 ± 0.12.

As to REWTEQETLLLLEALEMYKDDWNKVMEHVGSRTQDECILHFLR, the abundance fitness was 0.199 ± 0.14.

For the variant REWTEQETLLLLEALEMYKFDWNKVSEHVGSRTQDECILHFLR, the abundance fitness was -0.357 ± 0.12.

For REWDEQETLLLLEALEMYKDDWNKVSEHVGSRTQDECILHFLR, the abundance fitness was -0.608 ± 0.19.

As to REWTEQETLLLLEALEMYKDDWNKVSEHVGSRHQDECILHFLR, the abundance fitness is -0.214 ± 0.13.

For the variant REWTEQETLLLLEALEMYKDDWNKVSEHVGSRDQDECILHFLR, the abundance fitness was determined as 0.079 ± 0.23.

Turning to REWTEQETLLLLEALEMYKDDWNKVSEHVGSRPQDECILHFLR, the abundance fitness was -0.17 ± 0.12.

As for REWTEQETLLLLEALEMYKDDWNKVSEHVGSRRQDECILHFLR, the abundance fitness was 0.123 ± 0.077.

In the case of REWTEQETLYLLEALEMYKDDWNKVSEHVGSRTQDECILHFLR, the abundance fitness is -0.024 ± 0.1.

REWTEQETLALLEALEMYKDDWNKVSEHVGSRTQDECILHFLR: the abundance fitness was -0.424 ± 0.11.

Regarding REWTEQETLILLEALEMYKDDWNKVSEHVGSRTQDECILHFLR, the abundance fitness was -0.35 ± 0.097.

As to REWTEQETLVLLEALEMYKDDWNKVSEHVGSRTQDECILHFLR, the abundance fitness was 0.029 ± 0.081.
